Measured values taken from US20250179187A1, “ANTI PD-L2 ANTIBODY” (REJUVERON SENESCENCE THERAPEUTICS AG, priority 2022, published 2025).

Assays:
[1] = biological target: T1, cellular hPD-L2 expressed on CHOK-1 cells (Homo sapiens, UniProt Q9BQ51); assay: Binding of antibodies to cellular hPD-L2 on CHO-K1 cells by flow cytometry; conditions: compared to a panel of commercially available anti-PD-L2 antibodies
T1 construct: GFP; expressed in transfected cells; host or cells: CHO-K1
T1 sequence (Q9BQ51 20-273): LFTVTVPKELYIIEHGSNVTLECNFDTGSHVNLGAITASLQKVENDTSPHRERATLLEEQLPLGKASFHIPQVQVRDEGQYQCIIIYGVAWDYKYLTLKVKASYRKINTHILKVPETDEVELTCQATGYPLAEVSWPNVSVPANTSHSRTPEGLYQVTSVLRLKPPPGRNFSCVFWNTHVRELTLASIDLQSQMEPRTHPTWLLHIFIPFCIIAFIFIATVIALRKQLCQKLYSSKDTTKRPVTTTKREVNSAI
Description: CHO-K1 cells over-expressing either hPDL2-GFP or mPD-L2 GFP were detached, washed in phosphate buffered saline (PBS) and adjusted to a cell concentration of around 1 million cells in cytometry buffer (CB, PBS containing 1% […]). Around 80,000 cells were then distributed into a round-bottom 96 well plate and the plate was centrifuged for 3 minutes at 400 g at 4° C. and supernatant discarded. Appropriate antibody concentrations in 50 microliter volumes were added to the wells and incubated for 30 minutes at 6-8° C. The plate was washed 3 times with PBS and relevant secondary antibodies (either AlexaFluor 647 Goat anti-Mouse IgG (H+L) (Invitrogen A21235/lot 1915807) or AlexaFluor 647 Goat anti-Rat IgG (H+L) (Invitrogen A21247/lot 1921562) were added for 30 minutes at 4° C. Cells were again washed with PBS two times, resuspended in CB and analyzed in either the Sony ID7000 Spectral Cell analyzer (Sony) or the GALLIOS Flow Cytometer (Beckman-Coulter) was used. EC50 was calculated using the Sigmoidal 4PL equation of the GraphPad Prism-9 software.

recombinant hPD-L2 = biological target: T2, recombinant hPD-L2 (Homo sapiens, UniProt Q9BQ51); assay: ELISA with recombinant hPD-L2; assay type: binding; conditions: compared to a panel of commercially available anti-PD-L2 antibodies
T2 sequence (Q9BQ51 20-273): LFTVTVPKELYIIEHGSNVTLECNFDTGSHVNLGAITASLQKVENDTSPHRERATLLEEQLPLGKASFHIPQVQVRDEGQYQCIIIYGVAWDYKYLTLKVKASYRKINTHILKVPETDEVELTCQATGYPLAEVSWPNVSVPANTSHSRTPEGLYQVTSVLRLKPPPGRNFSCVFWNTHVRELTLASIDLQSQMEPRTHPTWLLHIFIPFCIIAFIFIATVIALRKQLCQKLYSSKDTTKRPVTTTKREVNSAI

hPD-L2/hPD-1 interaction = biological target: T3, hPD-L2/hPD-1 interaction (Homo sapiens, UniProt Q9BQ51); assay: Reporter assay, blocking of cellular hPD-L2/hPD-1 interaction (Jurkat hPD-1 / CHO-K1 hPD-L2 co-culture); assay type: cell-based; conditions: reporter in hPD-1 Jurkat cells co-cultured with hPD-L2 CHO-K1 cells; compared to MIH-18, 24F.10C12 and D7U86
T3 construct: host or cells: CHO-K1 (hPD-L2) co-cultured with Jurkat PD-1 effector cells
T3 sequence (Q9BQ51 20-273): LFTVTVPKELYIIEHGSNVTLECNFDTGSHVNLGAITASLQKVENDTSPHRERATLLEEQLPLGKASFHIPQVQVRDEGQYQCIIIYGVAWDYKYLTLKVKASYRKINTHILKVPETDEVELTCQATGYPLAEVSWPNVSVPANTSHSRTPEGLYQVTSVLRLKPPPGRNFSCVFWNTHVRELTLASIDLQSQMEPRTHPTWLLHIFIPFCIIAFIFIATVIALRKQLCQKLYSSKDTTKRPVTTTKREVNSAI
Description: Cellular blocking activity of antibodies according to the present invention was assessed by with the Promega (Southampton, Hampshire, UK) PD-1/PD-L2 blockade bioassay (Promega, Cat No. CS187131-1), which is a bioluminescent cell-based assay that is used to measure the potency and stability of antibodies and other biologics designed to block the hPD-1/PD-L2 interaction. In brief, CHO-K1 cells overexpressing hPD-L2 were thawed and plated in a 96 well plate. The following day, appropriate concentrations of antibodies were added to the wells. Jurkat PD-1 effector cells, expressing a luminescent NFAT reporter for cell activation, were subsequently thawed and added to the wells immediately. The co-culture was incubated for 6 hours and read using the SpectraMax i3× reader (Molecular Devices, Wokingham, UK). GraphPad Prism 9.0 (GraphPad Software, La Jolla, Ca) was used for the data analysis and data was plotted using a four-parameter non-linear regression model.

[2] = biological target: T4, recombinant hPD-1 binding to CHOK-1 cell expressing hPD-L2 (Homo sapiens, UniProt Q9BQ51); assay: Blocking of recombinant hPD-1 binding to cellular hPD-L2 by flow cytometry; assay type: cell-based; conditions: compared to a panel of commercially available anti-PD-L2 antibodies
T4 construct: GFP; host or cells: CHO-K1
T4 sequence (Q9BQ51 20-273): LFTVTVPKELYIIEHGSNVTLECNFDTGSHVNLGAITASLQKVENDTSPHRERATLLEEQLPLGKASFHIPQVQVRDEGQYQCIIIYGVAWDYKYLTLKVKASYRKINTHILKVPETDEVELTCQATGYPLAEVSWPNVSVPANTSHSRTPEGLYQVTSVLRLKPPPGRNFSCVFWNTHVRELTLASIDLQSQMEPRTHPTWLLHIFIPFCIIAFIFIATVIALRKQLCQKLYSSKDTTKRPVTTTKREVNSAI
Description: CHO-K1 cells over-expressing either hPDL2-GFP were detached, washed in phosphate buffered saline (PBS) and adjusted to a cell concentration of around 1 million cells in CB. Around 80,000 cells were then distributed into a round-bottom 96 well plate and the plate was centrifuged for 3 minutes at 400 g at 4° C. and supernatant discarded. A constant concentration of ligand recombinant hPD-1 ligand (Sino Biological 10377-H08H/lot LC13JA2207) of 15 micrograms/mL was incubated with respective concentration of antibody, added to the cells and incubated for 30 min at 6-8° C. Cells were washed 3 times in PBS and then incubated with a rabbit polyclonal anti-His (Abcam Ab1187/lot GR3369369-1) in CB and subsequently washed three times in PBS. Cells were then incubated with a labeled anti-rabbit secondary (AlexaFluor 647 Goat anti-Rabbit IgG (H+L) (Invitrogen A21244/lot 1910774) for 15 minutes at 4° C., washed two times in PBS, resuspended in CB and analyzed in the Sony ID7000 Spectral Cell analyzer (Sony).

PyMT mammary tumor = assay: Implantable mouse PyMT mammary tumor model; assay type: in vivo; conditions: in combination with doxorubicin, up to day 49, compared to TY-25 in combination with doxorubicin
Description: 1 million PyMT cells were injected in PBS into the right mammary fat pad number 4, with an N=10 animals per treatment group. When tumors reached an average of 100 millimeter cubed on day 17 post-injection, treatment regimens were initiated. All mice were sorted into study groups based on caliper estimation of tumor burden. The mice were distributed to ensure that the mean tumor burden for all groups was within 10% of the overall mean tumor burden for the study population. The first dose of doxorubicin was administered intraperitoneally at 4 mg/kg, as well as the antibodies, all at doses of 10 mg/kg intraperitoneally, on day 17 post-implantation. Doxorubicin (MWI Animal Health, BJ0080A/NA) was administered once more on day 24 and antibodies on days 20, 24, 27, 31, 34, 38, 41. The following commercial antibodies were used in the study: anti-mouse PD-L2 (clone TY-25, Bio X Cell lot/cat 0411901. Vehicle-treated animals received only vehicle solvent for doxorubicin as a no-treatment control. Tumor volume was measured at least 2-3 times per week throughout the study with a standard caliper.

B1: VH0/VK0-mIgG1: parental murine anti-PD-L2 antibody on mIgG1 backbone; SEQ ID NO: 21/SEQ ID NO: 22 (antibody, V domains shown)
VH: QVQLQQSGAELVRPGTSVKVSCKASGYAFSNYFIEWVKQRPGQGLEWIGLNIPGSGGSNYAEKFKGKATLTADKSSSTAYMQLSSLTSEDSAVYFCARRRLPPDWYFDVWGTGTTVTVSS
VL: DVVMTQTPLSLPVSLGDQASISCRSSQSLVHSDGNTYLHWYLQKPGQSPKLLIYKVSNRFSGVPDRFSGSGSGTDFTLKISRVEAEDLGVYFCSQSTHVPWTFGGGTKLEIK
Q: What does the source list for B1?
A: binding activity against cellular hPD-L2 [1]: superior binding activity; binding activity against recombinant hPD-L2 (recombinant hPD-L2): superior binding activity; blocking activity against cellular hPD-L2/hPD-1 interaction (hPD-L2/hPD-1 interaction): superior blocking activities; blocking activity against recombinant hPD-1 binding to CHOK-1 cell expressing hPD-L2 [2]: superior blocking activity; progression of tumors (PyMT mammary tumor): smaller progression of tumors
